The chains are these.
B1: HDV Ribozyme (parent)
chain: GGCCGGCAUGGUCCCAGCCUCCUCGCUGGCGCCGGCUGGGCAACAUUCCGAGGGGACCGUCCCCUCGGUAAUGGCGAAUGGGACCCA

This note sets out measurements from the RNAGym collection of RNA variant scans (doi:10.7554/elife.80360).

Variants of B1 are the subject of this data set. Nature of the data set: self-cleavage, relative activity (ratio to wild type); higher = more cleavage; co-transcriptional.
As for GGCCGGCAUGGUGUCAGCCUCCUCGCUGGCGCCGGCUGGGCAACAUUCCGAGGGGACCGUCCCCUCGGUAAUGGCGAAUGGGACCCA, the self-cleavage was 0.208.

In the case of GGCCGGCAUGGUGACAGCCUCCUCGCUGGCGCCGGCUGGGCAACAUUCCGAGGGGACCGUCCCCUCGGUAAUGGCGAAUGGGACCCA, the self-cleavage was determined as 0.

On to GGCCGGCAUGGUGCAAGCCUCCUCGCUGGCGCCGGCUGGGCAACAUUCCGAGGGGACCGUCCCCUCGGUAAUGGCGAAUGGGACCCA, for which the self-cleavage is 0.128.

On to GGCCGGCAUGGUGCUAGCCUCCUCGCUGGCGCCGGCUGGGCAACAUUCCGAGGGGACCGUCCCCUCGGUAAUGGCGAAUGGGACCCA, for which the self-cleavage is 0.

As to GGCCGGCAUGGUGCCAGCCUCCUCGUUGGCGCCGGCUGGGCAACAUUCCGAGGGGACCGUCCCCUCGGUAAUGGCGAAUGGGACCCA, the self-cleavage was 0.208.

GGCCGGCAUGGUGCCAGCCUCCUCGCUGGCGCCGGCUGGGCAACAUUCCGAGGGGACCGUCCCCUCGAUAAUGGCGAAUGGGACCCA: the self-cleavage stood at 0.

For the variant GGCCGGCAUGGUGCCAUCCUCCUCGCUGGCGCCGGCUGGGCAACAUUCCGAGGGGACCGUCCCCUCGGUAAUGGCGAAUGGGACCCA, the self-cleavage came to 0.0426.

As to GGCCGGCAUGGUGCCAGCCUCCUCGCUGGCGCCGGCUGGGCAACAUUCCGAGGGGACCGUCCCCUCGGUAAUAGCGAAUGGGACCCA, the self-cleavage is 0.0665.

Turning to GGCCGGCAUGGUGCCAGCCUCCUCGCUGGCGCCGGCUGGGCAACAUUCCGAGGGGACCGUCCCCUCCGUAAUGGCGAAUGGGACCCA, the self-cleavage turned out to be 0.0665.

For GGCCGGCAUGGUGCCAGACUCCUCGCUGGCGCCGGCUGGGCAACAUUCCGAGGGGACCGUCCCCUCGGUAAUGGCGAAUGGGACCCA, the self-cleavage was determined as 0.0831.

As to GGCCGGCAUGGUGCCAGCCUCCUCGCUGGCGCCGGCUGGGCAACAUUCCGAGGGGACCGUCCCCUCGGUAAUGGCGAAUGGGACCAA, the self-cleavage was found to be 0.0811.

GGCCGGCAUGGUGCCAGCCUCCUCGCUGGCGCCGGCUGGGCAACAUUCCGAGGGGACCGUCCCCUCGGUAAUGGCGAAUGGGACCGA: the self-cleavage worked out at 0.0978.

Consider GGCCGGCAUGGUGCCAGCCUCCUCGCUGGCGCCGGCUAGGCAACAUUCCGAGGGGACCGUCCCCUCGGUAAUGGCGAAUGGGACCCA, for which the self-cleavage was 0.0302.

On to GGCCGGCAUGGUGCCAGCCUCCUCGCUGGCGCCGGCUUGGCAACAUUCCGAGGGGACCGUCCCCUCGGUAAUGGCGAAUGGGACCCA, for which the self-cleavage was 0.0292.

For GGCCGGCAUGGUGCCAGCCUCCUCGCUGGCCCCGGCUGGGCAACAUUCCGAGGGGACCGUCCCCUCGGUAAUGGCGAAUGGGACCCA, the self-cleavage was found to be 0.

For GGCCGGCAUGGUGCCAGCCUCCUCGCUGGCACCGGCUGGGCAACAUUCCGAGGGGACCGUCCCCUCGGUAAUGGCGAAUGGGACCCA, the self-cleavage is 0.0923.

GGCCGGCAUGGUGCCAGCCUCCUCGCUGGCGCCGUCUGGGCAACAUUCCGAGGGGACCGUCCCCUCGGUAAUGGCGAAUGGGACCCA: the self-cleavage worked out at 0.0504.

As for GGCCGGCAUGGUGCCAGCCUCCUCGCUGGCGCCGACUGGGCAACAUUCCGAGGGGACCGUCCCCUCGGUAAUGGCGAAUGGGACCCA, the self-cleavage worked out at 0.0449.

As for GGCCGGCAUGGUGCCAGCCUCCUCGCUGGCGCCGCCUGGGCAACAUUCCGAGGGGACCGUCCCCUCGGUAAUGGCGAAUGGGACCCA, the self-cleavage was 0.0536.

Regarding GGCCGGCAUGGUGCCAGCCUCCUCGCUGGCGCCGGCUGGGCAACAUUCAGAGGGGACCGUCCCCUCGGUAAUGGCGAAUGGGACCCA, the self-cleavage was determined as 0.123.

Take GGCCGGCAUGGUGCCAGCCUCCUCGCUGGCGCCGGCUGGGCAACAUUCCGAGUGGACCGUCCCCUCGGUAAUGGCGAAUGGGACCCA: the self-cleavage is 0.102.

For GGCCGGCAUGGUGCCAGCCUCCUCGCUGGCGCCGGCUGGGCAACAUUCCGAGAGGACCGUCCCCUCGGUAAUGGCGAAUGGGACCCA, the self-cleavage came out at 0.163.

As to GGCCGGCAUGGUGCCAGCCUCCUCGCUGGCGCCGGCUGGGCAACAUUCCGAGGGGACCGUCCACUCGGUAAUGGCGAAUGGGACCCA, the self-cleavage was found to be 0.0906.

Consider GGCCGGCAUGGUGCCAGCCUCCUCGCUGGCGCCGGCUGGGCAACAUUCCGAGGGGACCGUCCCCUAGGUAAUGGCGAAUGGGACCCA, for which the self-cleavage worked out at 0.0339.

As to GGCCGGCAUGGUGCCAGCCUCCUCGCUGGCGCCGGCUGGGCAAUAUUCCGAGGGGACCGUCCCCUCGGUAAUGGCGAAUGGGACCCA, the self-cleavage is 0.

Consider GGCCGGCAUGGUGCCAGCCUCCUCGCUGGCGCCGGCUGGGCAAAAUUCCGAGGGGACCGUCCCCUCGGUAAUGGCGAAUGGGACCCA, for which the self-cleavage was 0.0449.

Regarding GGCCGGCAUGGUGCCAGCCUCCUCGCUGGCGCCGGCUGGUCAACAUUCCGAGGGGACCGUCCCCUCGGUAAUGGCGAAUGGGACCCA, the self-cleavage was found to be 0.104.

As for GGCCGGCAUGGUGCCAGCCUCCUCGCUGGCGCCGGCUGGACAACAUUCCGAGGGGACCGUCCCCUCGGUAAUGGCGAAUGGGACCCA, the self-cleavage was determined as 0.119.

On to GGCCGGCAUGGUGCCAGCCUCCUCGCUUGCGCCGGCUGGGCAACAUUCCGAGGGGACCGUCCCCUCGGUAAUGGCGAAUGGGACCCA, for which the self-cleavage worked out at 0.

Consider GGCCGGCAUGGUGCCAGCCUCCUCGCUGGCGCCGGCUGGGCAACAUUCCGAGGGGACGGUCCCCUCGGUAAUGGCGAAUGGGACCCA, for which the self-cleavage is 0.119.

On to GGCCGGCAUGGUGCCAGCCUCCUCGCUGGCGCCGGCUGGGCAACAUUCCGAGGGGACUGUCCCCUCGGUAAUGGCGAAUGGGACCCA, for which the self-cleavage came out at 0.0898.

For GGCCGGCAUGGUGCCAGCCUCCUCCCUGGCGCCGGCUGGGCAACAUUCCGAGGGGACCGUCCCCUCGGUAAUGGCGAAUGGGACCCA, the self-cleavage stood at 0.0875.
